Results taken from patent US20250325667A1 (published 2025).

T1: HPV E7 peptide on HLA-A*11:01 (human)
T1 peptide: IVCPICSQK

B1: TCR095 (TCR, V domains shown)
Valpha: GIQVEQSPPDLILQEGANSTLRCNFSDSVNNLQWFHQNPWGQLINLFYIPSGTKQNGRLSATTVATERYSLLYISSSQTTDSGVYFCAVEGDNAGGTSYGKLTFGQGTILTVHP
Vbeta: EAQVTQNPRYLITVTGKKLTVTCSQNMNHEYMSWYRQDPGLGLRQIYYSMNVEVTDKGDVPEGYKVSRKEKRNFPLILESPSPNQTSLYFCASSWSTSYGYTFGSGTRLTIV
B2: TCR074 (TCR, V domains shown)
Valpha: AQKITQTQPGMFVQEKEAVTLDCTYDTSDPSYGLFWYKQPSSGEMIFLIYQGSYDQQNATEGRYSLNFQKARKSANLVISASQLGDSAMYFCAMRIDAGGTSYGKLTFGQGTILTVHP
Vbeta: DAMVIQNPRYQVTQFGKPVTLSCSQTLNHNVMYWYQQKSSQAPKLLFHYYDKDFNNEADTPDNFQSRRPNTSFCFLDIRSPGLGDAAMYLCATSRDRVNTGELFFGEGSRLTVL
B3: TCR123 (TCR, V domains shown)
Valpha: SQKIEQNSEALNIQEGKTATLTCNYTNYSPAYLQWYRQDPGRGPVFLLLIRENEKEKRKERLKVTFDTTLKQSLFHITASQPADSATYLCALAGYQKVTFGTGTKLQVIP
Vbeta: SQTIHQWPATLVQPVGSPLSLECTVEGTSNPNLYWYRQAAGRGLQLLFYSVGIGQISSEVPQNLSASRPQDRQFILSSKKLLLSDSGFYLCAWSLRTSGSEQFFGPGTRLTVL

Target: T1, HPV E7 peptide on HLA-A*11:01
Assay: multimer staining

Binding result, recognises:
B1, B2, B3
